In the RNAGym collection of RNA variant scans (doi:10.1093/molbev/msab373):

B1: Azoarcus group I ribozyme (parent)
chain: GUGCCUUGCGCCGGGAAACCACGCAAGGGAUGGUGUCAAAUUCGGCGAAACCUAAGCGCCCGCCCGGGCGUAUGGCAACGCCGAGCCAAGCUUCGGCGCCUGCGCCGAUGAAGGUGUAGAGACUAGACGGCACCCACCUAAGGCAAACGCUAUGGUGAAGGCAUAGUCCAGGGAGUGGCGAAAGUCACACAAACCGG

Variants of: B1
Assay: reverse-splicing fitness (ratio to wild type); higher = more active; in vitro selection; Mg2+ level not given
In short: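 An in vitro group I ribozyme library with randomized positions was T7-transcribed and gel-purified. In triplicate, 10 pmol RNA in EPPS pH 7.5 was reacted with 50 pmoles of a 30-nt RNA substrate for 1 h at 37 °C across several added MgCl2 levels (1–48 mM), then stopped with EDTA. Products were reverse transcribed from a substrate-complementary primer, PCR-amplified and sequenced (HiSeq 4000). Fitness is a variant's read proportion after selection over that before, normalised to wild type.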

Variant	reverse-splicing fitness
C82U A145U C150U C169A U176A	0.0115
C82U A145U C150U C169A U176C	0.00789
C82U A145U C150U C169A U176G	0.0048
C82U A145U C150U C169G	0.00951
C82U A145U C150U C169G U176A	0.00933
C82U A145U C150U C169G U176C	0.0107
C82U A145U C150U C169G U176G	0.00498
C82U A145U C150U C169U	0.0118
C82U A145U C150U C169U U176A	0.0133
C82U A145U C150U C169U U176C	0.0115
C82U A145U C150U C169U U176G	0.00433
C82U A145U C150U U176A	0.274
C82U A145U C150U U176C	0.346
C82U A145U C150U U176G	0.0898
C82U A145U C169A	0.00801
C82U A145U C169A U176A	0.00693
C82U A145U C169A U176C	0.00648
C82U A145U C169A U176G	0.00464
C82U A145U C169G	0.00906
C82U A145U C169G U176A	0.00811
C82U A145U C169G U176C	0.00956

Variant	reverse-splicing fitness
C82U A145U C169G U176G	0.00447
C82U A145U C169U	0.0139
C82U A145U C169U U176A	0.0111
C82U A145U C169U U176C	0.0127
C82U A145U C169U U176G	0.00406
C82U A145U U176A	0.412
C82U A145U U176C	0.477
C82U A145U U176G	0.153
C82U C150A	0.0698
C82U C150A C169A	0.0107
C82U C150A C169A U176A	0.019
C82U C150A C169A U176C	0.0149
C82U C150A C169A U176G	0.00489
C82U C150A C169G	0.00731
C82U C150A C169G U176A	0.0177
C82U C150A C169G U176C	0.0184
C82U C150A C169G U176G	0.00558
C82U C150A C169U	0.0105
C82U C150A C169U U176A	0.0169
C82U C150A C169U U176C	0.0153
C82U C150A C169U U176G	0.0058

Variant	reverse-splicing fitness
C82U C150A U176A	0.0603
C82U C150A U176C	0.0779
C82U C150A U176G	0.0218
C82U C150G	0.051
C82U C150G C169A	0.00916
C82U C150G C169A U176A	0.0115
C82U C150G C169A U176C	0.01
C82U C150G C169A U176G	0.00612
C82U C150G C169G	0.00776
C82U C150G C169G U176A	0.00631
C82U C150G C169G U176C	0.0054
C82U C150G C169G U176G	0.00464
C82U C150G C169U	0.00789
C82U C150G C169U U176A	0.0076
C82U C150G C169U U176C	0.01
C82U C150G C169U U176G	0.0055
C82U C150G U176A	0.0283
C82U C150G U176C	0.0477
C82U C150G U176G	0.00652
C82U C150U	0.369
C82U C150U C169A	0.00983

Variant	reverse-splicing fitness
C82U C150U C169A U176A	0.0154
C82U C150U C169A U176C	0.0123
C82U C150U C169A U176G	0.00561
C82U C150U C169G	0.00973
C82U C150U C169G U176A	0.0135
C82U C150U C169G U176C	0.015
C82U C150U C169G U176G	0.0052
C82U C150U C169U	0.0129
C82U C150U C169U U176A	0.0128
C82U C150U C169U U176C	0.0135
C82U C150U C169U U176G	0.00558
C82U C150U U176A	0.238
C82U C150U U176C	0.294
C82U C150U U176G	0.0675
C82U C169A	0.00905
C82U C169A U176A	0.0127
C82U C169A U176C	0.0154
C82U C169A U176G	0.00439
C82U C169G	0.00984
C82U C169G U176A	0.0144
